From patent US20250136701A1 (GO THERAPEUTICS, published 2025)
Numbering of substitutions follows the chain as printed.

T1: cMET-Tn peptide PTKSFISGGSTITGVGKNLN, glycosylated with GalNAc on the serine and threonine residues (O-linked GalNAc on the serine at position 10 and the threonine at position 11; N-terminal biotin in the form described for Biacore and Octet)
T1 construct: Synthetic 20-residue glycopeptide of cMET; GalNAc sites not given; also called Tn-glycosylated cMET peptide; cMET glycopeptide
T1 peptide: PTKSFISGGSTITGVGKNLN

B1: 15C4.1D8.1G2 (antibody, V domains shown)
VH: QVQLQQSDAELVKPGASVKISCKASGYTFTDHAIHWVKQKPEQGLEWIGYFSPGNGDIKYNEKFKGKATLTADKSSSTAYMQLNSLTSEDSAVYFCKRSLPGPMDCWGQGTSVTVSS
VL: NIVMTQSPKSMSMSVGERVTLSCKASENVGIYVSWYQQKPEQSPKLLIYGPSNRYTGVPDRFTGSGSATDFTLTISSVQAEDLADYHCGQSYSYPFTFGSGTKLEIK
notes: Mouse monoclonal antibody from a hybridoma (Balb/c mice immunised with the KLH-conjugated Tn-cMET glycopeptide)
B2: 16E12.1D9.1B11 (antibody, V domains shown)
VH: B1 VH with G56D, I58V, K59R, N61S, P103D, M104F, C106Y, S112T, V113L
VL: DVQISQSPSYLAASPGETITINCRASKSINNYLVWYQEKPGKTIKPLIYSGSTLQTGTPSRFSGSGSGTDFSLTISSLEPEDFAMYYCQQHNEYPFTFGAGTKLELK
notes: Mouse monoclonal antibody from a hybridoma
B3: 8H3.2B9.2C7 (antibody, V domains shown)
VH: B1 VH with K40R, G66D, P103D, M104F, C106Y, S112T, V113L
VL: DVQITQSPSYLAASPGETITINCRASKSVSEYLAWYQEKPGKTNKLLIYSGSTLHSGIPSRFSGSGSGTDFTLTITSLAPEDFAMYFCQQHNEYPFTFGAGTKLELK
notes: Mouse monoclonal antibody from a hybridoma; also called GO-8H3
B4: 14E9 (antibody, V domains shown)
VH: QEQLVESGGGLVEPGASLTLTCKASGIDFSSYWICWVRQAPGKGLEWVGCIYTGSGGNTYYATWAKGRFTVSETSSTTVTLRMTSLTAADTATYFCARMGYSAGYIGATYITVGAFNLWGQGTLVTVSS
VL: DVVMTQTPASVGAAVGGTVTIKCQASQSISNWLAWYQQKPGQPPKLLIYSASYLESGVPSRFSGSGSGTEFTLTISDLECADAATYYCQCTYGSSGDSGSWDFGGGTEVVVKG
notes: Rabbit monoclonal antibody cloned from B cells of immunised New Zealand White rabbits
B5: 39A3 (antibody, V domains shown)
VH: QSLEEYGGDLVKPGASLTLTCTASGLDFSGIYWACWVRQAPGKGLEWIACMDNRVTYATWAKGRFTSSKTSSTTVTLQMTSLTAADTATYFCARGGYGGRGLVFNLWGQGTLVTVSS
VL: DPVLTQTPPSVSAAVGGTVTIKCQSSQSVYNNNELSWYQQKPGQPPKLLIYDASTLASGVPSRFKGSGSGTQFTLTISGVQCDDAATYYCQGIYYIGDWYSAFGGGTEVVVKG
notes: Rabbit monoclonal antibody cloned from B cells

Key:
[1] = target: T1, cMET-Tn peptide PTKSFISGGSTITGVGKNLN, …; assay: BLI (Octet), peptide on biosensor, apparent affinity
[2] = target: T1, cMET-Tn peptide PTKSFISGGSTITGVGKNLN, …; assay: SPR (Biacore), antibody immobilised, peptide as analyte
Text: Antibody affinity assays can be carried out using surface plasmon resonance (e.g., using a Biacore system (Cytiva)). In a surface plasmon resonance assay, one or more antibodies can be immobilized onto a biosensor and presented with an analyte (e.g., the cMET-Tn peptide Biotin-[…] (the amino acid portion of which is SEQ ID NO: 285; bold and underlined residues indicate GalNAc glycosylation sites) or a negative control analyte such as an unglycosylated cMET peptide (Biotin-[…] (the amino acid portion of which is SEQ ID NO:286)). The antibodies are contacted with different concentrations of the analyte, for example concentrations of 2.5 nM, 7.4 nM, 22 nM, 66 nM and 200 nM. Affininty is measured using multi-cycle kinetics in triplicate for each analyte concentration, with 1 min association and 5 min dissociation. […] The affinity is determined by fitting the binding curve to a specific model: kinetic fit (1:1 model) or if applicable heterogenous ligand binding model. The error (>95% confidence) was calculated by how close the generated curve matches the model.

MUC1-Tn = target: T2, MUC1-Tn; assay: BLI (Octet), peptide on biosensor, apparent affinity
T2 construct: Specificity control in the Biacore and Octet assays

| Binder | Kd [1] | Kd [2] | Kd (MUC1-Tn) |
| --- | --- | --- | --- |
| B1 | 2.83 nM | 7 nM |  |
| B2 | 19.2 nM | 1.43 nM | 2000 nM |
| B3 | 7 nM | 6.26 nM |  |
| B4 | 1.5 nM |  |  |
| B5 | 52 nM |  |  |
